Literature values, collected in article PMC7717565, “Structure of the Lifeact–F-actin complex” (PLoS Biology, 2020).

Target: F-actin (Oryctolagus cuniculus) (UniProt P68135)

Q: Which Kd does the source give for Lifeact Lifeact (from UniProt Q08641) here?
A: The Kd was 13.2 µM.
